Laboratory results from patent US20040081659.

What was measured:
[1] = system: 4-O-(Ac-4-trans-L-HypSSChgQSS-Sar)-(dAc)-VIN
[2] = system: Ac-AbuSSChgQ-S(dS)-(4-O-P)-dAc-VIN
[3] = system: Ac-4-trans-L-HypSSChgQS-(4-O-Ala)-(dAc)-VIN
[4] = system: 4-O-(Ac-SSChgQ-SS-4-trans-L-Hyp)-dAc-VIN
[5] = system: des-Acetylvinblastine-4-O-(N-Acetyl-4-trans-L-Hyp-Ser-Ser-Chg-Gln-Ser-Ser-Pro) ester
[6] = system: 4-O-(Ac-4-trans-L-HypSSChgQS-Glycine)-(dAc)-VIN
[7] = system: 4-O-(Ac-4-trans-L-HypSSChgQSV-glycolyl)-VIN
[8] = system: Ac-4-trans-L-HypSSChgQSS-(4-O-Sar)-(dAc)-VIN
[9] = system: 4-O-(Ac-Abu-SSChgQ-SP)-dAc-VIN
[10] = system: Ac-AbuSSChgQ-SS-(4-O-P)-dAc-VIN
[11] = system: 4-O-(Ac-SSChgQ-SS-P)-dAc-VIN
[12] = system: (4-O)-Ac-(4-trans-L-Hyp)SSChgQ-SL-(dAc)-VIN
[13] = system: 4-O-((2-OH)Ac-Abu-SSChgQ-S-P)-dAc-VIN
[14] = system: 4-O-(Ac-4-trans-L-HypSSChgQ-SS-4-trans-L-Hyp)-dAc-VIN
[15] = system: Ac-4-trans-L-HypSSChgQ-SChg-(4-O-lactyl)-dAc-VIN
[16] = system: 4-O-(Ac-4-trans-L-HypSSChgQSL-lactyl)-(dAc)-VIN
[17] = system: 4-O-(Ac-SSChgQS-Gly)-(dAc)-VIN
[18] = system: Ac-4-trans-L-HypSSChgQSChg-(4-O-glycolyl)-VIN

How did the Time to 50% Substrate Cleavage by York PSA [1] turn out when free prostate specific antigen (PSA) was run?
The Time to 50% Substrate Cleavage by York PSA was 32 min.

And the Time to 50% Substrate Cleavage by York PSA [2]?
Its Time to 50% Substrate Cleavage by York PSA is 60 min.

And the “Time to 50% Substrate Cleavage by York PSA (Min)” value [3]?
The value was 23 (prod converts to 4-O-A-dAc-VIN).

What about the Time to 50% Substrate Cleavage by York PSA [4] of the same substance?
The Time to 50% Substrate Cleavage by York PSA was 22 min.

And the Time to 50% Substrate Cleavage by York PSA [5]?
Its Time to 50% Substrate Cleavage by York PSA is 17 min.

What about the Time to 50% Substrate Cleavage by York PSA [6] of the same substance?
Its Time to 50% Substrate Cleavage by York PSA is 30 min.

And the Time to 50% Substrate Cleavage by York PSA [7]?
Its Time to 50% Substrate Cleavage by York PSA is 8 min.

What about the Time to 50% Substrate Cleavage by York PSA [8] of the same substance?
The Time to 50% Substrate Cleavage by York PSA was 15 min.

What about the Time to 50% Substrate Cleavage by York PSA [9] of the same substance?
Its Time to 50% Substrate Cleavage by York PSA is 80 min.

What about the Time to 50% Substrate Cleavage by York PSA [10] of the same substance?
Its Time to 50% Substrate Cleavage by York PSA is 7 min.

What about the Time to 50% Substrate Cleavage by York PSA [11] of the same substance?
The Time to 50% Substrate Cleavage by York PSA was 15 min.

And the Time to 50% Substrate Cleavage by York PSA [12]?
The Time to 50% Substrate Cleavage by York PSA was 35 min.

And the Time to 50% Substrate Cleavage by York PSA [13]?
Its Time to 50% Substrate Cleavage by York PSA is 110 min.

And the Time to 50% Substrate Cleavage by York PSA [14]?
Its Time to 50% Substrate Cleavage by York PSA is 13 min.

And the Time to 50% Substrate Cleavage by York PSA [15]?
Its Time to 50% Substrate Cleavage by York PSA is 14 min.

And the Time to 50% Substrate Cleavage by York PSA [16]?
The Time to 50% Substrate Cleavage by York PSA was 10 min.

What about the Time to 50% Substrate Cleavage by York PSA [17] of the same substance?
The Time to 50% Substrate Cleavage by York PSA was 55 min.

And the Time to 50% Substrate Cleavage by York PSA [18]?
The Time to 50% Substrate Cleavage by York PSA was 12 min.
